Experimental data reported in patent US20230000998A1.

Biological target: human TrkB receptor (overexpressed on TrkB-NFAT-bla CHO-K1 reporter cells) (human) (UniProt Q16620)
Test: cell-based or functional assay

human TrkB receptor (overexpressed on TrkB-NFAT-bla CHO-K1 reporter cells) (human), sequence (Q16620 32-822): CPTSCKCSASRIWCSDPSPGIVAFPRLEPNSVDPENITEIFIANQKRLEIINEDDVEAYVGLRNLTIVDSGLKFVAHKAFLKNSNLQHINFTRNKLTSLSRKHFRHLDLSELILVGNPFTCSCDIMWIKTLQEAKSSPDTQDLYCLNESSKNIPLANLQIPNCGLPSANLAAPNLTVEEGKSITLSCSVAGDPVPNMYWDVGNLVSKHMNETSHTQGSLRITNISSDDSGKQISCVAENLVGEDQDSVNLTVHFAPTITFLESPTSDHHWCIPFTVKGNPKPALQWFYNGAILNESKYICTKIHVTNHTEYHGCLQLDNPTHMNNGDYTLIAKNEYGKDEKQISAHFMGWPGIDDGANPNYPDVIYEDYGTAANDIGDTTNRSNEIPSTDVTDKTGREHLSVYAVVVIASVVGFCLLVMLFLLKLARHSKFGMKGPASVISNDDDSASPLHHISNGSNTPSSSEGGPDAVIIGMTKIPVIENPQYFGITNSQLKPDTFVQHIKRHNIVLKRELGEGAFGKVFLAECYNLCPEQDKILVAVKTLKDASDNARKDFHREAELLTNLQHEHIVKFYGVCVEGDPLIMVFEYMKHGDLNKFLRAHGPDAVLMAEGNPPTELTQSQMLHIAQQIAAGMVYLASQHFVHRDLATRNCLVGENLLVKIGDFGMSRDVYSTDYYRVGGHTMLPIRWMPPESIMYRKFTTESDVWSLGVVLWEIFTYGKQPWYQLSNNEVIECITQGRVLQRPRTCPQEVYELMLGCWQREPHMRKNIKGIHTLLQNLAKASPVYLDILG

- EC50 of beta-lactamase reporter response in TrkB-NFAT-bla CHO-K1 cells: 0.055 nM
Substance: BDNF (brain derived neurotrophic factor; Peprotech) (from UniProt P23560 129-247) (ligand)
